According to US12679878B2, “CRF2 receptor agonists and their use in therapy” (SANOFI, priority 2020, dated 2026):
Starred links: 1 amine or outer side, 2 acyl side, 3 side chain; linkers in the order of their positions; H or OH if unused. Non-standard residues stand in square brackets, D forms with d. Groups on a side chain read outwards from the residue. No end group written: not given here. *: point of attachment. γGlu = O=C(O)[C@H](CCC(=O)[*:2])N[*:1]; Palmitoyl = CCCCCCCCCCCCCCCC(=O)*; Aib = CC(C)(N)C(=O)O

Assays:
Assay in all cases: cell-based or functional assay
[1] = molecular target: human corticotropin-releasing factor 2α (CRF2α receptor) (human), Q13324
[2] = molecular target: human corticotropin-releasing factor 2α receptor (CRF2α receptor) (human), Q13324
[3] = molecular target: T1, CRF1R receptor (anti-target) (UniProt P34998 24-415, limits assumed)
T1 sequence (looked up): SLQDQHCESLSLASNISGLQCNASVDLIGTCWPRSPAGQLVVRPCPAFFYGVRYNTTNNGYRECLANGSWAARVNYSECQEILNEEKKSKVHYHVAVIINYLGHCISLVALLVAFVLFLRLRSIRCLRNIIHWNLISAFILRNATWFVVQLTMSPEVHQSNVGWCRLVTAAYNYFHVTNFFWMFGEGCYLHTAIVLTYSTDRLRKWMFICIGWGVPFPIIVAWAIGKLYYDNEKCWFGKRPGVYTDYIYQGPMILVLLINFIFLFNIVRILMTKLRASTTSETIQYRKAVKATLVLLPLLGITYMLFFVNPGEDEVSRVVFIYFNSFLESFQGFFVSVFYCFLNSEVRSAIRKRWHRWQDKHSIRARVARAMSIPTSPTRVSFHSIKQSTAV

Chain of human corticotropin-releasing factor 2α (CRF2α receptor) (human), Q13324 (Q13324 20-411): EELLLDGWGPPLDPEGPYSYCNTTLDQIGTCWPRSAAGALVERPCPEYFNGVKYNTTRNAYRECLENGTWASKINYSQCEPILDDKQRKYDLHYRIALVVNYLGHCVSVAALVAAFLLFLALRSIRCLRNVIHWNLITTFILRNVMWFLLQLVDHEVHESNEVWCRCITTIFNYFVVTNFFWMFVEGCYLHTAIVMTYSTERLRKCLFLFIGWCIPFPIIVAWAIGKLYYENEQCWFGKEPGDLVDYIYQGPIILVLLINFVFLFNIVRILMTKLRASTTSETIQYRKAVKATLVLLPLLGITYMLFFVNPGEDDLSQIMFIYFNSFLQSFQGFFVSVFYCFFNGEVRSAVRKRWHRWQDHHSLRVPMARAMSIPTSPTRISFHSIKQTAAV
Chain of human corticotropin-releasing factor 2α receptor (CRF2α receptor) (human), Q13324 (Q13324 20-411): as above

Binder | EC50 [nM], 0% HSA (cAMP, HTRF) [1] [nM] | CRF2 EC50 (cAMP, HTRF) [2] [nM] | CRF1/CRF2 ratio (of EC50) [3] | CRF1 EC50 (cAMP, HTRF) [3] [nM]
IVLSLD[dV]PIGLK([γGlu-Palmitoyl])QILLKQERQKK[Aib]REQAEKNKRILERV-NH2 (N-terminus assumed; SMILES CCCCCCCCCCCCCCCC(=O)N[C@@H](CCC(=O)NCCCC[C@H](NC(=O)[C@H](CC(C)C)NC(=O)CNC(=O)[C@@H](NC(=O)[C@@H]1CCCN1C(=O)[C@H](NC(=O)[C@H](CC(=O)O)NC(=O)[C@H](CC(C)C)NC(=O)[C@H](CO)NC(=O)[C@H](CC(C)C)NC(=O)[C@@H](NC(=O)[C@@H](N)[C@@H](C)CC)C(C)C)C(C)C)[C@@H](C)CC)C(=O)N[C@@H](CCC(N)=O)C(=O)N[C@H](C(=O)N[C@@H](CC(C)C)C(=O)N[C@@H](CC(C)C)C(=O)N[C@@H](CCCCN)C(=O)N[C@@H](CCC(N)=O)C(=O)N[C@@H](CCC(=O)O)C(=O)N[C@@H](CCCNC(=N)N)C(=O)N[C@@H](CCC(N)=O)C(=O)N[C@@H](CCCCN)C(=O)N[C@@H](CCCCN)C(=O)NC(C)(C)C(=O)N[C@@H](CCCNC(=N)N)C(=O)N[C@@H](CCC(=O)O)C(=O)N[C@@H](CCC(N)=O)C(=O)N[C@@H](C)C(=O)N[C@@H](CCC(=O)O)C(=O)N[C@@H](CCCCN)C(=O)N[C@@H](CC(N)=O)C(=O)N[C@@H](CCCCN)C(=O)N[C@@H](CCCNC(=N)N)C(=O)N[C@H](C(=O)N[C@@H](CC(C)C)C(=O)N[C@@H](CCC(=O)O)C(=O)N[C@@H](CCCNC(=N)N)C(=O)N[C@H](C(N)=O)C(C)C)[C@@H](C)CC)[C@@H](C)CC)C(=O)O) [peptide of SEQ ID NO: 218] | 1.58 | 1.58 | 4 | 6.97
IVLSLD[dV]PIKLK([γGlu-Palmitoyl])QILLKQERQKKQREQAEKNKQILEQV-NH2 (N-terminus assumed; SMILES CCCCCCCCCCCCCCCC(=O)N[C@@H](CCC(=O)NCCCC[C@H](NC(=O)[C@H](CC(C)C)NC(=O)[C@H](CCCCN)NC(=O)[C@@H](NC(=O)[C@@H]1CCCN1C(=O)[C@H](NC(=O)[C@H](CC(=O)O)NC(=O)[C@H](CC(C)C)NC(=O)[C@H](CO)NC(=O)[C@H](CC(C)C)NC(=O)[C@@H](NC(=O)[C@@H](N)[C@@H](C)CC)C(C)C)C(C)C)[C@@H](C)CC)C(=O)N[C@@H](CCC(N)=O)C(=O)N[C@H](C(=O)N[C@@H](CC(C)C)C(=O)N[C@@H](CC(C)C)C(=O)N[C@@H](CCCCN)C(=O)N[C@@H](CCC(N)=O)C(=O)N[C@@H](CCC(=O)O)C(=O)N[C@@H](CCCNC(=N)N)C(=O)N[C@@H](CCC(N)=O)C(=O)N[C@@H](CCCCN)C(=O)N[C@@H](CCCCN)C(=O)N[C@@H](CCC(N)=O)C(=O)N[C@@H](CCCNC(=N)N)C(=O)N[C@@H](CCC(=O)O)C(=O)N[C@@H](CCC(N)=O)C(=O)N[C@@H](C)C(=O)N[C@@H](CCC(=O)O)C(=O)N[C@@H](CCCCN)C(=O)N[C@@H](CC(N)=O)C(=O)N[C@@H](CCCCN)C(=O)N[C@@H](CCC(N)=O)C(=O)N[C@H](C(=O)N[C@@H](CC(C)C)C(=O)N[C@@H](CCC(=O)O)C(=O)N[C@@H](CCC(N)=O)C(=O)N[C@H](C(N)=O)C(C)C)[C@@H](C)CC)[C@@H](C)CC)C(=O)O) [peptide of SEQ ID NO: 212] | 1.23 | 1.23 | 1 | 0.9
IVLSLD[dV]PIKLK([γGlu-Palmitoyl])QILLKQERQKKQRQQAEKNKQILAQV-NH2 (N-terminus assumed; SMILES CCCCCCCCCCCCCCCC(=O)N[C@@H](CCC(=O)NCCCC[C@H](NC(=O)[C@H](CC(C)C)NC(=O)[C@H](CCCCN)NC(=O)[C@@H](NC(=O)[C@@H]1CCCN1C(=O)[C@H](NC(=O)[C@H](CC(=O)O)NC(=O)[C@H](CC(C)C)NC(=O)[C@H](CO)NC(=O)[C@H](CC(C)C)NC(=O)[C@@H](NC(=O)[C@@H](N)[C@@H](C)CC)C(C)C)C(C)C)[C@@H](C)CC)C(=O)N[C@@H](CCC(N)=O)C(=O)N[C@H](C(=O)N[C@@H](CC(C)C)C(=O)N[C@@H](CC(C)C)C(=O)N[C@@H](CCCCN)C(=O)N[C@@H](CCC(N)=O)C(=O)N[C@@H](CCC(=O)O)C(=O)N[C@@H](CCCNC(=N)N)C(=O)N[C@@H](CCC(N)=O)C(=O)N[C@@H](CCCCN)C(=O)N[C@@H](CCCCN)C(=O)N[C@@H](CCC(N)=O)C(=O)N[C@@H](CCCNC(=N)N)C(=O)N[C@@H](CCC(N)=O)C(=O)N[C@@H](CCC(N)=O)C(=O)N[C@@H](C)C(=O)N[C@@H](CCC(=O)O)C(=O)N[C@@H](CCCCN)C(=O)N[C@@H](CC(N)=O)C(=O)N[C@@H](CCCCN)C(=O)N[C@@H](CCC(N)=O)C(=O)N[C@H](C(=O)N[C@@H](CC(C)C)C(=O)N[C@@H](C)C(=O)N[C@@H](CCC(N)=O)C(=O)N[C@H](C(N)=O)C(C)C)[C@@H](C)CC)[C@@H](C)CC)C(=O)O) [peptide of SEQ ID NO: 214] | 4.15 | 4.15 | 1 | 4.27
IVLSLD[dV]PIKLK([γGlu-Palmitoyl])QILLKQERQKK[Aib]RQKAEKNKQILAQV-NH2 (N-terminus assumed; SMILES CCCCCCCCCCCCCCCC(=O)N[C@@H](CCC(=O)NCCCC[C@H](NC(=O)[C@H](CC(C)C)NC(=O)[C@H](CCCCN)NC(=O)[C@@H](NC(=O)[C@@H]1CCCN1C(=O)[C@H](NC(=O)[C@H](CC(=O)O)NC(=O)[C@H](CC(C)C)NC(=O)[C@H](CO)NC(=O)[C@H](CC(C)C)NC(=O)[C@@H](NC(=O)[C@@H](N)[C@@H](C)CC)C(C)C)C(C)C)[C@@H](C)CC)C(=O)N[C@@H](CCC(N)=O)C(=O)N[C@H](C(=O)N[C@@H](CC(C)C)C(=O)N[C@@H](CC(C)C)C(=O)N[C@@H](CCCCN)C(=O)N[C@@H](CCC(N)=O)C(=O)N[C@@H](CCC(=O)O)C(=O)N[C@@H](CCCNC(=N)N)C(=O)N[C@@H](CCC(N)=O)C(=O)N[C@@H](CCCCN)C(=O)N[C@@H](CCCCN)C(=O)NC(C)(C)C(=O)N[C@@H](CCCNC(=N)N)C(=O)N[C@@H](CCC(N)=O)C(=O)N[C@@H](CCCCN)C(=O)N[C@@H](C)C(=O)N[C@@H](CCC(=O)O)C(=O)N[C@@H](CCCCN)C(=O)N[C@@H](CC(N)=O)C(=O)N[C@@H](CCCCN)C(=O)N[C@@H](CCC(N)=O)C(=O)N[C@H](C(=O)N[C@@H](CC(C)C)C(=O)N[C@@H](C)C(=O)N[C@@H](CCC(N)=O)C(=O)N[C@H](C(N)=O)C(C)C)[C@@H](C)CC)[C@@H](C)CC)C(=O)O) [peptide of SEQ ID NO: 209] | 8.62 | 8.62 | 3 | 21.7
